# From the RNAGym collection of RNA variant scans (doi:10.1093/nar/gkz1192)
# B1: CPEB3 Ribozyme (parent)
# chain: UAACAGGGGGCCACAGCAGAAGCGUUCACGUCGCAGCCCCUGUCAGAUUCUGGUGAAUCUGCGAAUUCUGCUGUAUAUCUC
# Variants of: B1
# Assay: self-cleavage, relative activity (ratio to wild type); higher = more cleavage; in vitro, sequencing
# Summary of the method: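 Relative activity was defined as the cleaved/total read fraction for a variant divided by the same fraction for the unmutated ribozyme. CPEB3 self-cleaving ribozyme libraries were made by rounds of error-prone PCR, barcoded, and transcribed in vitro with T7 RNA polymerase for 5 hours at 37°C, and cleavage ran through transcription plus a 15 min DNase I step before EDTA. Illumina sequencing of template-switched reverse transcripts gave the reads, and DNA sequencing mapped the barcodes. Averages come from three batches, using variants with at least 5 reads.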
row,Variant,self-cleavage
1,A20G G63C,0.63
2,A20G G63U,0.83
3,A20G G63A,0.63
4,A20G G24A,0.29
5,A20G G24U,0.14
6,A20G G42U,0.22
7,A20G G42A,0.53
8,G19U A77U,0.12
9,G19C A75U,0.29
10,G19A U43A,0.36
11,A20G U66G,0.37
12,A20G U66C,0.37
13,A20G U66A,0.33
14,A20G C44U,0.21
15,A20G C44A,0.32
16,G19C C40U,0.29
17,A20G U31A,0.37
18,A20G U31C,0.56
19,A20G U31G,0.58
20,G19C U26C,0.27
21,A20G U25A,0.27
22,A20G U25C,0.3
23,A20G U25G,0.41
24,A20C C37U,0.13

row,Variant,self-cleavage
1,G19U U58G,0.12
2,G19U U58C,0.39
3,G19U U58A,0.04
4,G19C U49A,0.36
5,G19A U48C,0.16
6,A20C U31C,0.14
7,A20G U49G,0.28
8,A20G U49C,0.31
9,A20G U49A,0.34
10,A20G U60C,0.34
11,A20G U60A,0.35
12,A20G U67C,1.01
13,A20G U67A,0.55
14,A20G U67G,0.25
15,A20G A28G,0.44
16,A20G A28C,0.52
17,A20G A28U,0.58
18,G19C U78C,0.71
19,G19A U49C,0.1
20,A20G G33A,0.35
21,A20G G33U,0.29
22,A20G G33C,0.14
23,A20C C34U,0.18
24,A20C U25A,0.31

row,Variant,self-cleavage
1,A20C U25C,0.28
2,G19U A57G,0.48
3,G19U A57C,0.19
4,A20G C68A,0.24
5,A20G C68U,0.75
6,A20G G46A,0.26
7,A20G G46U,0.23
8,A20G G46C,0.11
9,G19C U60C,0.15
10,G19C U60A,0.16
11,A20G C37A,0.41
12,A20G C37G,0.78
13,A20G C37U,0.62
14,G19U C32G,0.19
15,A20C,0.3
16,A20G,0.89
17,G19U G73U,0.56
18,G19U G73A,0.51
19,A20C C39G,0.07
20,A20G G61U,0.39
21,A20G C23U,0.38
22,G19U U78C,0.32
23,A20C U78C,0.4
24,A20G C32U,0.22

row,Variant,self-cleavage
1,A20G C32A,0.27
2,A20G C32G,0.12
3,G19U G42A,0.18
4,G19U U60A,0.45
5,G19U U60C,0.28
6,G19U U43C,0.1
7,G19U U43A,0.29
8,A20G A75G,0.81
9,A20G A75U,0.71
10,G19C C68U,0.63
11,G19A U25A,0.28
12,G19A U25C,0.13
13,G19C A77G,0.24
14,G19U A75U,0.28
15,A20G U69C,0.5
16,A20G U69G,0.42
17,A20G U69A,0.34
18,G19C U67C,0.21
19,G19U U31C,0.2
20,G19C A57G,0.23
21,G19C A57U,0.13
22,A20G G55A,0.58
23,A20G G55U,0.62
24,A20C A64G,0.07

row,Variant,self-cleavage
1,A20C A64U,0.17
2,A20G C81G,0.88
3,A20G C81U,1.09
4,A20G C81A,1.09
5,A20G G22A,0.46
6,A20G C27A,0.16
7,A20G C27U,0.47
8,G19U U49A,0.08
9,G19U U49C,0.15
10,A20C U72A,0.33
11,A20C U72C,0.3
12,A20C U72G,0.09
13,A20C U49C,0.17
14,A20C U49A,0.16
15,G19U A47U,0.5
16,G19U A47G,0.22
17,G19A G52A,0.16
18,A20C U51A,0.32
19,G19U C81U,0.34
20,G19C U41C,0.18
21,G19C U41G,0.32
22,G19C U41A,0.44
23,A20G G30A,0.3
24,A20G G30C,0.24

row,Variant,self-cleavage
1,A20G G30U,0.25
2,A20G A64G,0.65
3,A20G A64C,0.53
4,A20G A64U,0.31
5,A20G A77C,0.79
6,A20G A77U,0.83
7,A20G A77G,0.91
8,A20C C29U,0.12
9,G19U U74C,0.56
10,A20G C40A,0.23
11,A20G C40U,0.46
12,A20C U48C,0.28
13,A20G C39A,0.37
14,A20G C39U,0.63
15,A20C U43C,0.28
16,A20C U43A,0.35
17,G19C U48A,0.18
18,G19C U48C,0.35
19,A20G U41C,0.89
20,A20G U41A,0.28
21,A20G U41G,0.35
22,A20C U41C,0.29
23,A20G A35C,0.65
24,A20G A35U,0.34

row,Variant,self-cleavage
1,A20G A35G,1.25
2,A20G G36A,0.36
3,G19A C39A,0.11
4,G19A C39U,0.33
5,A20G U54G,0.52
6,A20G U54A,0.97
7,A20G U54C,0.88
8,G19A C40G,0.1
9,G19A C40U,0.21
10,A20G U51A,0.8
11,A20G U51C,0.85
12,A20G U51G,0.82
13,G19U A28G,0.14
14,G19U A28U,0.08
15,G19U U80C,0.26
16,G19U U80A,0.19
17,A20C U80A,0.51
18,A20C U80C,0.54
19,G19U A35U,0.15
20,G19U A35G,0.63
21,G19A U80A,0.58
22,G19A U80C,0.27
23,G19U U76A,0.18
